In paper PMC10786891, “Massively parallel profiling of RNA-targeting CRISPR-Cas13d”:

T1: EsCas13d, nuclease-dead (Eubacterium siraeum, UniProt B0MS50, R295A;H300A;R849A;H854A)
T1 sequence: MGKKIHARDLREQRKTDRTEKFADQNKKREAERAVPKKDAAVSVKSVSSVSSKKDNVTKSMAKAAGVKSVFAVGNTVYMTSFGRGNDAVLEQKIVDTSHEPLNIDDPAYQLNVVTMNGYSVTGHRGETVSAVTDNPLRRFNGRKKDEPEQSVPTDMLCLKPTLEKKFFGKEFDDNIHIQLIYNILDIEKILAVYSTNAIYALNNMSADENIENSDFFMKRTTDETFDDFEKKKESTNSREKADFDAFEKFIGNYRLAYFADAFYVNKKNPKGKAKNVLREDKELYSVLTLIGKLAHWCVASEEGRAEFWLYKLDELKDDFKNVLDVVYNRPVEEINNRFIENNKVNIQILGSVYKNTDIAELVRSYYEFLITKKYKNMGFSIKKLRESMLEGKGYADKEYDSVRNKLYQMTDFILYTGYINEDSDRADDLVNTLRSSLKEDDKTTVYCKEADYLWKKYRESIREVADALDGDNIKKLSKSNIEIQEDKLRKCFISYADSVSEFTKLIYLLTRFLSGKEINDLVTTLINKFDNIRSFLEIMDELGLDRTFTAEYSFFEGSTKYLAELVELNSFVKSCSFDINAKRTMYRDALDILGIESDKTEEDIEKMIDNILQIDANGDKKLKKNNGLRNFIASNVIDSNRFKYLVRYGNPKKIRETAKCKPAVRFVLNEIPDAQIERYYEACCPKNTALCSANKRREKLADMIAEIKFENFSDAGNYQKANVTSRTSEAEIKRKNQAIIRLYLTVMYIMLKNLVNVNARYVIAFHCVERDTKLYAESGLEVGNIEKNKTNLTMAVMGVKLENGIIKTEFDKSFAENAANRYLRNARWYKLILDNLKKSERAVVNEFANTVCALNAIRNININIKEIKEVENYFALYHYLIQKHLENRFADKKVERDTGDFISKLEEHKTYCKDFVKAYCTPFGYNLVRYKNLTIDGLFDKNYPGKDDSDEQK

B1: target 1 insG 3' of 21,insU 3' of 20 (mixed)
RNA 1: CACCCGUGCAAAAAUGCAGGGGUCUAAAACUGAGCGGAUAACCUCUCUAUGG
RNA 2: GGGAAUGGAUCCACAUCUACGAAUUCGUACCGAUUAGAGAGGUUAUCCGCUCACCGAGAUCGGAAGAGCACACGU
B2: target 1 insA 3' of 15,insC 3' of 14 (mixed)
RNA 1: CACCCGUGCAAAAAUGCAGGGGUCUAAAACUGAGCGGAUAACCUCUCUAUGG
RNA 2: GGGAAUGGAUCCACAUCUACGAAUUCGUACCAUAGAGAACGGUUAUCCGCUCACCGAGAUCGGAAGAGCACACGU
B3: target 1 insC 3' of 15 (mixed)
RNA 1: CACCCGUGCAAAAAUGCAGGGGUCUAAAACUGAGCGGAUAACCUCUCUAUGG
RNA 2: GGGAAUGGAUCCACAUCUACGAAUUCGUACCAUAGAGCAGGUUAUCCGCUCACCGAGAUCGGAAGAGCACACGU
B4: target 1 C4G,U19C (mixed)
RNA 1: CACCCGUGCAAAAAUGCAGGGGUCUAAAACUGAGCGGAUAACCUCUCUAUGG
RNA 2: GGGAAUGGAUCCACAUCUACGAAUUCGUACCACAGAGAGGUUAUCCGGUCACCGAGAUCGGAAGAGCACACGU
B5: target 1 insC 3' of 17,insU 3' of 9 (mixed)
RNA 1: CACCCGUGCAAAAAUGCAGGGGUCUAAAACUGAGCGGAUAACCUCUCUAUGG
RNA 2: GGGAAUGGAUCCACAUCUACGAAUUCGUACCAUAGCAGAGGUUAUUCCGCUCACCGAGAUCGGAAGAGCACACGU
B6: target 1 insA 3' of 21,insU 3' of 7 (mixed)
RNA 1: CACCCGUGCAAAAAUGCAGGGGUCUAAAACUGAGCGGAUAACCUCUCUAUGG
RNA 2: GGGAAUGGAUCCACAUCUACGAAUUCGUACCAAUAGAGAGGUUAUCUCGCUCACCGAGAUCGGAAGAGCACACGU
B7: target 1 insU 3' of 18,insA 3' of 17 (mixed)
RNA 1: CACCCGUGCAAAAAUGCAGGGGUCUAAAACUGAGCGGAUAACCUCUCUAUGG
RNA 2: GGGAAUGGAUCCACAUCUACGAAUUCGUACCAUAUGAAGAGGUUAUCCGCUCACCGAGAUCGGAAGAGCACACGU
B8: target 1 insC 3' of 18,insU 3' of 2 (mixed)
RNA 1: CACCCGUGCAAAAAUGCAGGGGUCUAAAACUGAGCGGAUAACCUCUCUAUGG
RNA 2: GGGAAUGGAUCCACAUCUACGAAUUCGUACCAUACGAGAGGUUAUCCGCUCUACCGAGAUCGGAAGAGCACACGU
B9: target 1 U11A,G12U (mixed)
RNA 1: CACCCGUGCAAAAAUGCAGGGGUCUAAAACUGAGCGGAUAACCUCUCUAUGG
RNA 2: GGGAAUGGAUCCACAUCUACGAAUUCGUACCAUAGAGAGUAUAUCCGCUCACCGAGAUCGGAAGAGCACACGU
B10: target 1 insU 3' of 9,insU 3' of 5 (mixed)
RNA 1: CACCCGUGCAAAAAUGCAGGGGUCUAAAACUGAGCGGAUAACCUCUCUAUGG
RNA 2: GGGAAUGGAUCCACAUCUACGAAUUCGUACCAUAGAGAGGUUAUUCCGUCUCACCGAGAUCGGAAGAGCACACGU
B11: target 1 insU 3' of 17 (mixed)
RNA 1: CACCCGUGCAAAAAUGCAGGGGUCUAAAACUGAGCGGAUAACCUCUCUAUGG
RNA 2: GGGAAUGGAUCCACAUCUACGAAUUCGUACCAUAGUAGAGGUUAUCCGCUCACCGAGAUCGGAAGAGCACACGU
B12: target 1 insU 3' of 22,insA 3' of 6 (mixed)
RNA 1: CACCCGUGCAAAAAUGCAGGGGUCUAAAACUGAGCGGAUAACCUCUCUAUGG
RNA 2: GGGAAUGGAUCCACAUCUACGAAUUCGUACUCAUAGAGAGGUUAUCCAGCUCACCGAGAUCGGAAGAGCACACGU
B13: target 1 insG 3' of 16,insA 3' of 4 (mixed)
RNA 1: CACCCGUGCAAAAAUGCAGGGGUCUAAAACUGAGCGGAUAACCUCUCUAUGG
RNA 2: GGGAAUGGAUCCACAUCUACGAAUUCGUACCAUAGAGGAGGUUAUCCGCAUCACCGAGAUCGGAAGAGCACACGU
B14: target 1 insA 3' of 22,insA 3' of 17 (mixed)
RNA 1: CACCCGUGCAAAAAUGCAGGGGUCUAAAACUGAGCGGAUAACCUCUCUAUGG
RNA 2: GGGAAUGGAUCCACAUCUACGAAUUCGUACACAUAGAAGAGGUUAUCCGCUCACCGAGAUCGGAAGAGCACACGU
B15: target 1 U11A,G13A (mixed)
RNA 1: CACCCGUGCAAAAAUGCAGGGGUCUAAAACUGAGCGGAUAACCUCUCUAUGG
RNA 2: GGGAAUGGAUCCACAUCUACGAAUUCGUACCAUAGAGAAGAUAUCCGCUCACCGAGAUCGGAAGAGCACACGU
B16: target 1 insG 3' of 18,insC 3' of 18 (mixed)
RNA 1: CACCCGUGCAAAAAUGCAGGGGUCUAAAACUGAGCGGAUAACCUCUCUAUGG
RNA 2: GGGAAUGGAUCCACAUCUACGAAUUCGUACCAUAGCGAGAGGUUAUCCGCUCACCGAGAUCGGAAGAGCACACGU
B17: target 1 C21A,C22A (mixed)
RNA 1: CACCCGUGCAAAAAUGCAGGGGUCUAAAACUGAGCGGAUAACCUCUCUAUGG
RNA 2: GGGAAUGGAUCCACAUCUACGAAUUCGUAAAAUAGAGAGGUUAUCCGCUCACCGAGAUCGGAAGAGCACACGU
B18: target 1 A1G,C7G (mixed)
RNA 1: CACCCGUGCAAAAAUGCAGGGGUCUAAAACUGAGCGGAUAACCUCUCUAUGG
RNA 2: GGGAAUGGAUCCACAUCUACGAAUUCGUACCAUAGAGAGGUUAUGCGCUCGCCGAGAUCGGAAGAGCACACGU
B19: target 1 insA 3' of 19,insC 3' of 19 (mixed)
RNA 1: CACCCGUGCAAAAAUGCAGGGGUCUAAAACUGAGCGGAUAACCUCUCUAUGG
RNA 2: GGGAAUGGAUCCACAUCUACGAAUUCGUACCAUACAGAGAGGUUAUCCGCUCACCGAGAUCGGAAGAGCACACGU
B20: target 1 C2G,C7A (mixed)
RNA 1: CACCCGUGCAAAAAUGCAGGGGUCUAAAACUGAGCGGAUAACCUCUCUAUGG
RNA 2: GGGAAUGGAUCCACAUCUACGAAUUCGUACCAUAGAGAGGUUAUACGCUGACCGAGAUCGGAAGAGCACACGU
B21: target 1 insA 3' of 22,insA 3' of 22 (mixed)
RNA 1: CACCCGUGCAAAAAUGCAGGGGUCUAAAACUGAGCGGAUAACCUCUCUAUGG
RNA 2: GGGAAUGGAUCCACAUCUACGAAUUCGUACAACAUAGAGAGGUUAUCCGCUCACCGAGAUCGGAAGAGCACACGU
B22: target 1 del3,del16 (mixed)
RNA 1: CACCCGUGCAAAAAUGCAGGGGUCUAAAACUGAGCGGAUAACCUCUCUAUGG
RNA 2: GGGAAUGGAUCCACAUCUACGAAUUCGUACCAUAGGAGGUUAUCCGCCACCGAGAUCGGAAGAGCACACGU
B23: target 1 insC 3' of 13 (mixed)
RNA 1: CACCCGUGCAAAAAUGCAGGGGUCUAAAACUGAGCGGAUAACCUCUCUAUGG
RNA 2: GGGAAUGGAUCCACAUCUACGAAUUCGUACCAUAGAGAGCGUUAUCCGCUCACCGAGAUCGGAAGAGCACACGU
B24: target 1 insC 3' of 13,insC 3' of 8 (mixed)
RNA 1: CACCCGUGCAAAAAUGCAGGGGUCUAAAACUGAGCGGAUAACCUCUCUAUGG
RNA 2: GGGAAUGGAUCCACAUCUACGAAUUCGUACCAUAGAGAGCGUUAUCCCGCUCACCGAGAUCGGAAGAGCACACGU
B25: target 1 U3G,G15C (mixed)
RNA 1: CACCCGUGCAAAAAUGCAGGGGUCUAAAACUGAGCGGAUAACCUCUCUAUGG
RNA 2: GGGAAUGGAUCCACAUCUACGAAUUCGUACCAUAGACAGGUUAUCCGCGCACCGAGAUCGGAAGAGCACACGU
B26: target 1 C7G,G17A (mixed)
RNA 1: CACCCGUGCAAAAAUGCAGGGGUCUAAAACUGAGCGGAUAACCUCUCUAUGG
RNA 2: GGGAAUGGAUCCACAUCUACGAAUUCGUACCAUAAAGAGGUUAUGCGCUCACCGAGAUCGGAAGAGCACACGU
B27: target 1 insG 3' of 21,insC 3' of 20 (mixed)
RNA 1: CACCCGUGCAAAAAUGCAGGGGUCUAAAACUGAGCGGAUAACCUCUCUAUGG
RNA 2: GGGAAUGGAUCCACAUCUACGAAUUCGUACCGACUAGAGAGGUUAUCCGCUCACCGAGAUCGGAAGAGCACACGU
B28: target 1 insC 3' of 15,insC 3' of 14 (mixed)
RNA 1: CACCCGUGCAAAAAUGCAGGGGUCUAAAACUGAGCGGAUAACCUCUCUAUGG
RNA 2: GGGAAUGGAUCCACAUCUACGAAUUCGUACCAUAGAGCACGGUUAUCCGCUCACCGAGAUCGGAAGAGCACACGU

target: T1, EsCas13d, nuclease-dead; assay: crRNA (strand 1, pre-loaded); Mg2+; 40 mM Tris-HCl pH 7.5, 150 mM NaCl, 6 mM MgCl2, 1 mM DTT, 0.1% Tween-20, 0.2 mg/ml BSA; 25 C; 10 min per concentration, then washed; conditions: tags: His6-TwinStrep-SUMO cleaved; N-terminal SNAP kept (SNAP-Surface 488); label: 3' end held by stalled T7 RNA polymerase

| Binder | Kd [µM] |
| --- | --- |
| B1 | 0.058 ± 0.009 |
| B2 | 0.0148 ± 0.0007 |
| B3 | 0.0163 ± 0.0008 |
| B4 | 0.028 ± 0.006 |
| B5 | 0.039 ± 0.007 |
| B6 | 0.0407 ± 0.0031 |
| B7 | 0.054 ± 0.007 |
| B8 | 0.038 ± 0.007 |
| B9 | 0.0051 ± 0.00035 |
| B10 | 0.008 ± 0.0015 |
| B11 | 0.0141 ± 0.0012 |
| B12 | 0.055 ± 0.016 |
| B13 | 0.0105 ± 0.0005 |
| B14 | 0.0275 ± 0.002 |
| B15 | 0.0385 ± 0.0028 |
| B16 | 0.0308 ± 0.0013 |
| B17 | 0.036 ± 0.005 |
| B18 | 0.0092 ± 0.0009 |
| B19 | 0.0215 ± 0.0018 |
| B20 | 0.00622 ± 0.00024 |
| B21 | 0.0099 ± 0.0006 |
| B22 | 0.085 ± 0.031 |
| B23 | 0.0091 ± 0.0004 |
| B24 | 0.0131 ± 0.0004 |
| B25 | 0.034 ± 0.004 |
| B26 | 0.049 ± 0.005 |
| B27 | 0.0153 ± 0.0011 |
| B28 | 0.012 ± 0.001 |
